Each block holds one binder with its values, some of them ahead of it.
Columns and labels:
[1] = target: T1, DISC1-FLAG (full-length human DISC1 with a C-terminal FLAG tag) (human, UniProt Q9NRI5 1-854); assay: anti-FLAG immunoprecipitation from stable PC12 cells with or without NGF (50 ng/ml, 24 hours), blot with anti-FEZ1
T1 construct: also called FLAG-tagged DISC1
T1 sequence: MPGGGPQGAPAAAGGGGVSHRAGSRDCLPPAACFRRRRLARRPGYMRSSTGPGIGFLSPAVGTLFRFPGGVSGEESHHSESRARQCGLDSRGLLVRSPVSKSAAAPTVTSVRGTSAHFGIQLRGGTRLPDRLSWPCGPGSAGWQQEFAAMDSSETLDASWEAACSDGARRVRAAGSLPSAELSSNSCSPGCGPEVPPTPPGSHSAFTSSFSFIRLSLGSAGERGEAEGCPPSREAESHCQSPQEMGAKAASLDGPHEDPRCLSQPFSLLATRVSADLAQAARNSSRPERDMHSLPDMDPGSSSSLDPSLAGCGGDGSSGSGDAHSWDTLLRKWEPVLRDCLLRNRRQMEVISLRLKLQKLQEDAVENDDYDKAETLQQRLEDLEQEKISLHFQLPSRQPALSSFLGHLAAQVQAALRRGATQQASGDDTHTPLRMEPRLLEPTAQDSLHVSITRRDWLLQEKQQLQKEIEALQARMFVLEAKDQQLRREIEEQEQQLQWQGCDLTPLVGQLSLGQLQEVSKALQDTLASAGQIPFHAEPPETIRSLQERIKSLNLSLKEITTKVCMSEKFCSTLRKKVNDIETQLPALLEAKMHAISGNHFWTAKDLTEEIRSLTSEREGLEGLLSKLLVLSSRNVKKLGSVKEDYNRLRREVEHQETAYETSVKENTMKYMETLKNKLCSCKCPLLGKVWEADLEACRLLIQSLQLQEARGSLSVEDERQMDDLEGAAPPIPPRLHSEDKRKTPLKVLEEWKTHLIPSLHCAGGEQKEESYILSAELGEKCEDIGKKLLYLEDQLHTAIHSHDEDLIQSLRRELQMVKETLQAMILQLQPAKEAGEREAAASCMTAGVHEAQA
Description: Stably DISC1-FLAG-expressing PC12 cells were stimulated with a nerve growth factor (NGF) (50 ng/ml) for 24 hours and collected. Lysates were immunoprecipitated by anti-FLAG antibody. Immunoprecipitated complexes were subjected to SDS-PAGE and blotted with anti-FEZ1 antibody. […] Cells were either unstimulated (b, e, h, k) or stimulated with NGF (50 ng/ml) for 24 hours (c, f, 1,1), and 48 hours (d, g, J, m) and their neurites were subsequently microscopically observed.
(§1) HEK293T cells were transfected with DISC1-FLAG and FEZ1-HA, individually or in combination. FLAG-tagged truncated forms of DISC1 mentioned in the Plasmids section were also transfected in combination with FEZ-HA. Cells were lysed in TNE buffer/1% NP40. Prepared lysates were incubated with anti-FLAG antibody for 2 hours at 4° C. and then with Protein Gagarose (Invitrogen) for 1 hour at 4° C. The agarose beads were then washed five times with TNE buffer. Immunoprecipitates were subjected to SDS-PAGE and blotted with anti-HA antibody. Conversely, immunoprecipitates with anti-HA antibody were blotted with anti-FLAG antibody. PC12 cells were transfected with FEZ1-HA or mock and then lysed in TNE buffer/1% NP40. Lysates were immunoprecipitated by anti-HA antibody. Immunoprecipitates were subjected to SDS-PAGE and blotted with anti-actin antibody. […]

[2] = target: T2, DISC1/ΔBR-FLAG (deleted DISC1 that lacks the FEZ1-binding region, FLAG-tagged) (human, UniProt Q9NRI5 1-854); assay: co-immunoprecipitation from transfected HEK293T cells, anti-FLAG / anti-HA
T2 sequence: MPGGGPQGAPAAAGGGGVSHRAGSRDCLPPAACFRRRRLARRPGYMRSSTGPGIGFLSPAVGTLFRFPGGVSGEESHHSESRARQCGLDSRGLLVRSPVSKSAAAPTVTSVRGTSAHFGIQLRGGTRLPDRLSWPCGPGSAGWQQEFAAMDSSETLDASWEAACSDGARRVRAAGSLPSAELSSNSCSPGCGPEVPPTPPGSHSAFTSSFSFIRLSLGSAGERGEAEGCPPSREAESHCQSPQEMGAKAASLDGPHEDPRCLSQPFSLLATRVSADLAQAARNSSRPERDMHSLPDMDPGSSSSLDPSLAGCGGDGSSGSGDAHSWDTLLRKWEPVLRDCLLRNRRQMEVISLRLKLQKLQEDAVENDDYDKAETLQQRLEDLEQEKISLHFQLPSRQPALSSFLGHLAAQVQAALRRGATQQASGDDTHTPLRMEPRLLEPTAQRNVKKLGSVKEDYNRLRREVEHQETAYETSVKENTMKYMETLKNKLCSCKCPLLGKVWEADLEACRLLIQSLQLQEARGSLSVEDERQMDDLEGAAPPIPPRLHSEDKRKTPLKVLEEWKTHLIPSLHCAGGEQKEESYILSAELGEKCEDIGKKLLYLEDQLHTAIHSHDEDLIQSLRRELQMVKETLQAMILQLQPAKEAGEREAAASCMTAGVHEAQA
Description: (a) Yeast two-hybrid assay to determine the binding regions of FEZ1 (upper panel) and DISC1 (lower panel). Open bars indicate the FEZ1 clone obtained by the screening and DISC1 clone used as bait. Closed bars indicate shorter fragments. […] The α-galactosidase activity of yeast transformants were assayed. +++ indicates strongly positive as a positive control. ++, + and − indicate moderately positive, weakly positive and negative, respectively. (b) DISC1 coimmunoprecipitated with FEZ1. HEK293T cells were transfected with DISC1-FLAG and FEZ1-HA, individually or in combination. […] Immunoprecipitates by anti-FLAG or anti-HA antibody were blotted with the reciprocal antibody.
as §1, with “NP40.” for “NP40. Lysates were immunoprecipitated by anti-HA antibody. Immunoprecipitates were subjected to SDS-PAGE and blotted with anti-actin antibody.”

binding result [1]: binds
B1: endogenous FEZ1 of PC12 cells (other, rat, UniProt P97577 1-393, looked up)
chain: MEAPLVSLDEEFEDIRPCCTEDPEEKPQSLYGTSPHHLEDPSLSELENFSSEIISFKSMEDLVNEFDEKLNVCFRNYNAKTENLAPVKNQLQIQEEEETLRDEEVWDALTDNYIPSLSEDWRDPNIEALNGNSSDTEIHEKEEEDEFIEKSENDSGINEEPLLTADQVIEEIEEMMQNSPDPEEEVEVLEEEDGGEISSQADSVLLQEMQALTQTFNNNWSYEGLRHMSGSELTELLDQVEGAIRDFSEELVHQLARRDELEFEKEVKNSFITVLIEVQNKQKEQRELMKKRRKEKGLSLQSSRIEKGNQMPLKRFSMEGISNILQSGIRQTFGSSGADRQYLNTVIPYEKKSSPPSVEDLQMLTNILFAMKEDNEKVPTLLTDYILKVLCPT

binding result [2]: no binding
B2: FEZ1-HA (human FEZ1 with a C-terminal HA tag) (other, not shown: small tags and cut ends)
chain: MEAPLVSLDEEFEDLRPSCSEDPEEKPQCFYGSSPHHLEDPSLSELENFSSEIISFKSMEDLVNEFDEKLNVCFRNYNAKTENLAPVKNQLQIQEEEETLQDEEVWDALTDNYIPSLSEDWRDPNIEALNGNCSDTEIHEKEEEEFNEKSENDSGINEEPLLTADQVIEEIEEMMQNSPDPEEEEEVLEEEDGGETSSQADSVLLQEMQALTQTFNNNWSYEGLRHMSGSELTELLDQVEGAIRDFSEELVQQLARRDELEFEKEVKNSFITVLIEVQNKQKEQRELMKKRRKEKGLSLQSSRIEKGNQMPLKRFSMEGISNILQSGIRQTFGSSGTDKQYLNTVIPYEKKASPPSVEDLQMLTNILFAMKEDNEKVPTLLTDYILKVLCPT
notes: Expressed from pcDNA3.1(+) in HEK293T or PC12 cells; also called HA-tagged FEZ1; FEZ-HA
